How the values were obtained:
[1] = test system: patients with moderate to severe plaque psoriasis; test: Safety outcomes (AEs, SAEs) in the open-label study; format: in vivo, human; settings: through week 24
Method: This was a single center, prospective, open-label study to evaluate the effectiveness and safety of tildrakizumab (ILUMYA® [tildrakizumab-asmn] in combination with halcinonide ointment (HALOG® ointment [Halcinonide Ointment, USP, 0.1%) for treating moderate to severe plaque psoriasis. The study protocol was approved by an institutional review board and the study was conducted in accordance with ethical guidelines. Written informed consent was obtained by all patients before initiating treatment.
All enrolled patients received tildrakizumab (100 mg) by subcutaneous injection at weeks 0, 4, and 16. Patients with BSA>3% at week 16 applied halcinonide ointment twice daily for 4 weeks and then continued without halcinonide for an additional 4 weeks of follow up. Patients with BSA≤3% at week 16 were also followed up to week 24. All patients were evaluated for safety and efficacy at weeks 4, 8, 16, 20 and 24.
The primary endpoint of the study was the proportion of patients with BSA≤3% at week 16. […] Improvements in PGA, the composite PGA×BSA measure, and DLQI were also evaluated as secondary endpoints. […]
A cohort of approximately 25 participants was planned for enrollment in the study. […] AEs and SAEs were summarized descriptively by frequency and severity, and their causal relationship to treatment was assessed.

[2] = test system: moderate to severe plaque psoriasis; test: Prospective, open-label study of effectiveness of tildrakizumab plus topical halcinonide ointment; format: in vivo, human; settings: for improvement of mean DLQI from baseline: patients with BSA≤3% at week 16, no halcinonide ointment
[3] = patients with BSA>3% at week 16, week 16
[4] = patients with BSA≤3% at week 16, no halcinonide, week 16

B1: tildrakizumab (antibody, chains of the INN, looked up, V domains shown)
VH: QVQLVQSGAEVKKPGASVKVSCKASGYIFITYWMTWVRQAPGQGLEWMGQIFPASGSADYNEKFEGRVTMTTDTSTSTAYMELRSLRSDDTAVYYCARGGGGFAYWGQGTLVTVSS
VL: DIQMTQSPSSLSASVGDRVTITCRTSENIYSYLAWYQQKPGKAPKLLIYNAKTLAEGVPSRFSGSGSGTDFTLTISSLQPEDFATYYCQHHYGIPFTFGQGTKVEIK
Q: B1 was tested. Which “serious adverse events (SAEs)” value [1] did it give?
A: no SAEs

Q: And the tolerability [1]?
A: well tolerated

Q: What about the “decrease of mean DLQI from baseline” value ([2]; all patients, week 16) of the same molecule?
A: 68%

Q: And the “proportion of patients achieving PASI 75” value ([2]; all patients, week 16)?
A: 60.9%

Q: What about the “proportion of patients achieving PASI 90” value ([2]; all patients, week 16) of the same molecule?
A: 17.4%

Q: What about the “proportion of patients achieving PASI 100 (complete resolution)” value ([2]; all patients, week 16) of the same molecule?
A: 4.3%

Q: What about the “proportion of patients with BSA≤1%” value ([2]; all patients, week 16) of the same molecule?
A: 21.7%

Q: And the “reduction in mean BSA involvement from baseline” value ([2]; all patients, week 16)?
A: 74%

Q: And the “proportion of patients reporting a DLQI score of 0 or 1” value ([2]; all patients, week 16 (baseline 4.0%))?
A: 39.2%

Q: What about the “mean BSA involvement” value ([2]; all patients, week 16 (baseline 19.1%)) of the same molecule?
A: 5.0%

Q: What about the “proportion of patients with BSA≤3%” value ([2]; all patients, week 16, tildrakizumab 100 mg sc at weeks 0, 4, 16) of the same molecule?
A: 52.2%

Q: What about the “BSA≤3% response at weeks 20 and 24” value ([2]; most patients with BSA≤3% at week 16 (no halcinonide use) who completed the study) of the same molecule?
A: maintained a BSA≤3%

Q: What about the “reduction from baseline in mean BSA” value [2, 3] of the same molecule?
A: 55%

Q: And the “reduction from baseline in mean PGA” value [2, 3]?
A: 29%

Q: And the “reduction from baseline in mean PGA×BSA” value [2, 3]?
A: 64%

Q: And the “reduction in mean DLQI from baseline” value [2, 3]?
A: 50%

Q: And the “improvement of mean DLQI from baseline” value ([2]; week 16)?
A: 84%

Q: And the “improvement of mean DLQI from baseline” value ([2]; weeks 20 and 24)?
A: remained at similar levels

Q: What about the “BSA, PGA and PGA×BSA responses” value ([2]; patients with BSA≤3% at week 16, no halcinonide, through week 24) of the same molecule?
A: maintained

Q: And the “reduction of mean BSA from baseline” value [2, 4]?
A: 89%

Q: What about the “reduction of mean PGA from baseline” value [2, 4] of the same molecule?
A: 60%

Q: What about the “reduction of mean PGA×BSA from baseline” value [2, 4] of the same molecule?
A: 95%

Q: And the “number of patients with BSA>3%” value ([2]; week 16)?
A: 11 patients

Q: What about the “number of patients with BSA≤3%” value ([2]; week 16) of the same molecule?
A: 12 patients
